Legend:
HeLa Kyoto [1] = experiment: solubility change mitosis vs G1/S (difference of NP-40 vs SDS log2 ratios) (log2 ratio difference); higher = more soluble in mitosis
HeLa Kyoto [2] = experiment: solubility in G1/S (NP-40 vs SDS abundance) (log2 ratio); higher = more soluble; conditions: cell cycle stage: G1/S
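For solubility change mitosis vs G1/S (difference of NP-40 vs SDS log2 ratios) in this document: synchronized HeLa Kyoto cells (double thymidine block for G1/S, nocodazole release for mitosis), protein amounts in NP-40 versus SDS lysates quantified by mass spectrometry, three biological replicates.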
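For solubility in G1/S (NP-40 vs SDS abundance) in this document: HeLa Kyoto cells arrested at G1/S by double thymidine block, proteins quantified by TMT10plex mass spectrometry in mild NP-40 versus SDS extracts, three biological replicates.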

CLK3, sequence (chain, as listed by the source): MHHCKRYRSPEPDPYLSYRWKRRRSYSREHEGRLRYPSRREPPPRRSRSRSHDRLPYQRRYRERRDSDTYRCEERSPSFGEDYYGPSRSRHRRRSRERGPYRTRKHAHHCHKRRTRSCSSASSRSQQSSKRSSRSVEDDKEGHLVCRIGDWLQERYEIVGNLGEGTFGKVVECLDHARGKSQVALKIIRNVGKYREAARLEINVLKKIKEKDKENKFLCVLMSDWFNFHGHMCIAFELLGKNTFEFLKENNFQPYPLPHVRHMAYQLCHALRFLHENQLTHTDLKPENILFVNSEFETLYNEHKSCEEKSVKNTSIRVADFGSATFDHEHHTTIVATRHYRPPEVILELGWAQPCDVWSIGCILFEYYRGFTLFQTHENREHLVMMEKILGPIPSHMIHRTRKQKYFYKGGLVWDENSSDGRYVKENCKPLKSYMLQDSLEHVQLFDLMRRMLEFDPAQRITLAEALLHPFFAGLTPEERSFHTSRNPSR

Substance | solubility change mitosis (log2) (HeLa Kyoto [1]) | solubility in G1/S (log2) (HeLa Kyoto [2])
MAGAATGSRTPGRSELVEGCGWRCPEHGDRVAELFCRRCRRCVCALCPVLGAHRGHPVGLALEAAVHVQKLSQECLKQLAIKKQQHIDNITQIEDATEKLKANAESSKTWLKGKFTELRLLLDEEEALAKKFIDKNTQLTLQVYREQADSCREQLDIMNDLSNRVWSISQEPDPVQRLQAYTATEQEMQQQMSLGELCHPVPLSFEPVKSFFKGLVEAVESTLQTPLDIRLKESINCQLSDPSSTKPGTLLKTSPSPERSLLLKYARTPTLDPDTMHARLRLSADRLTVRCGLLGSLGPVPVLRFDALWQVLARDCFATGRHYWEVDVQEAGAGWWVGAAYASLRRRGASAAARLGCNRQSWCLKRYDLEYWAFHDGQRSRLRPRDDLDRLGVFLDYEAGVLAFYDVTGGMSHLHTFRATFQEPLYPALRLWEGAISIPRLP [TRIM14] | -0.0649 | -0.209
MDRRKKPLDVTASSLVDLKAELFRKQEEFKQEKLLKDSGVFGKPKTTNKKPSIWSKQNVGVSNRAEKDAEQKIEEQKTLDKAREKLEEKAKLYEKMTKGDFIDEEVEDMYLVDFTQKIIDKRKEMEASGAHRDSQKAGERDDDEENLPEGEIPPPQDPSEEWVDYVDSLGRSRRCMRKDLPDLLEMDKNLQGRLFISPANEKTLLSEDMRKELQRQQWEEEEREALKRPMGPVHYEDIRENEARQLGVGYFAFARDKELRNKQMKTLEMLREQTTDQRTKRENIKEKRKAILEARLAKLRQKKMKKSKEGGTEEENRDGDVIGPLPPEPEAVPTPRPAAQSSKVEVIVQERKDTKPGVPHIREWDRGKEFSFGYWSKRQSDLRAERDPEFAPPSDYFVGQKRTGFSSSQAWSRPGPAQSDPGQCPDQSHGPSPEHTSPTPAPDNPPQAPTVTFKTLDDMISYYKQVT [CCDC174] | 0.139 | 0.12
MALRLLRRAARGAAAAALLRLKASLAADIPRLGYSSSSHHKYIPRRAVLYVPGNDEKKIKKIPSLNVDCAVLDCEDGVAANKKNEARLRIVKTLEDIDLGPTEKCVRVNSVSSGLAEEDLETLLQSRVLPSSLMLPKVESPEEIQWFADKFSFHLKGRKLEQPMNLIPFVETAMGLLNFKAVCEETLKVGPQVGLFLDAVVFGGEDFRASIGATSSKETLDILYARQKIVVIAKAFGLQAIDLVYIDFRDGAGLLRQSREGAAMGFTGKQVIHPNQIAVVQEQFSPSPEKIKWAEELIAAFKEHQQLGKGAFTFQGSMIDMPLLKQAQNTVTLATSIKEK [CLYBL] | 0.0246 | -0.168
MSEESDSLRTSPSVASLSENELPPPPEPPGYVCSLTEDLVTKAREELQEKPEWRLRDVQALRDMVRKEYPNLSTSLDDAFLLRFLRARKFDYDRALQLLVNYHSCRRSWPEVFNNLKPSALKDVLASGFLTVLPHTDPRGCHVVCIRPDRWIPSNYPITENIRAIYLTLEKLIQSEETQVNGIVILADYKGVSLSKASHFGPFIAKKVIGILQDGFPIRIKAVHVVNEPRIFKGIFAIIKPFLKEKIANRFFLHGSDLNSLHTNLPRSILPKEYGGTAGELDTATWNAVLLASEDDFVKEFCQPVPACDSILGQTLLPEGLTSDAQCDDSLRAVKSQLYSCY [TTPAL] | -0.0202 | 0.206
MSYVFVNDSSQTNVPLLQACIDGDFNYSKRLLESGFDPNIRDSRGRTGLHLAAARGNVDICQLLHKFGADLLATDYQGNTALHLCGHVDTIQFLVSNGLKIDICNHQGATPLVLAKRRGVNKDVIRLLESLEEQEVKGFNRGTHSKLETMQTAESESAMESHSLLNPNLQQGEGVLSSFRTTWQEFVEDLGFWRVLLLIFVIALLSLGIAYYVSGVLPFVENQPELVH [ANKRD46] | 0.136 | 0.237
MDAAEPGLPPGPEGRKRYSDIFRSLDNLEISLGNVTLEMLAGDPLLSEDPEPDKTPTATVTNEASCWSGPSPEGPVPLTGEELDLRLIRTKGGVDAALEYAKTWSRYAKELLAWTEKRASYELEFAKSTMKIAEAGKVSIQQQSHMPLQYIYTLFLEHDLSLGTLAMETVAQQKRDYYQPLAAKRTEIEKWRKEFKEQWMKEQKRMNEAVQALRRAQLQYVQRSEDLRARSQGSPEDSAPQASPGPSKQQERRRRSREEAQAKAQEAEALYQACVREANARQQDLEIAKQRIVSHVRKLVFQGDEVLRRVTLSLFGLRGAQAERGPRAFAALAECCAPFEPGQRYQEFVRALRPEAPPPPPPAFSFQEFLPSLNSSPLDIRKKLSGPLPPRLDENSAEPGPWEDPGTGWRWQGTPGPTPGSDVDSVGGGSESRSLDSPTSSPGAGTRQLVKASSTGTESSDDFEERDPDLGDGLENGLGSPFGKWTLSSAAQTHQLRRLRGPAKCRECEAFMVSGTECEECFLTCHKRCLETLLILCGHRRLPARTPLFGVDFLQLPRDFPEEVPFVVTKCTAEIEHRALDVQGIYRVSGSRVRVERLCQAFENGRALVELSGNSPHDVSSVLKRFLQELTEPVIPFHLYDAFISLAKTLHADPGDDPGTPSPSPEVIRSLKTLLVQLPDSNYNTLRHLVAHLFRVAARFMENKMSANNLGIVFGPTLLRPPDGPRAASAIPVTCLLDSGHQAQLVEFLIVHYEQIFGMDELPQATEPPPQDSSPAPGPLTTSSQPPPPHLDPDSQPPVLASDPGPDPQHHSTLEQHPTATPTEIPTPQSDQREDVAEDTKDGGGEVSSQGPEDSLLGTQSRGHFSRQPVKYPRGGVRPVTHQLSSLALVASKLCEETPITSVPRGSLRGRGPSPAAASPEGSPLRRTPLPKHFEITQETARLLSKLDSEAVPRATCCPDVQPEEAEDHL [GMIP] | 0.0497 | 0.095
NBEAL1 | -0.118 | -0.894
MASEAPSPPRSPPPPTSPEPELAQLRRKVEKLERELRSCKRQVREIEKLLHHTERLYQNAESNNQELRTQVEELSKILQRGRNEDNKKSDVEVQTENHAPWSISDYFYQTYYNDVSLPNKVTELSDQQDQAIETSILNSKDHLQVENDAYPGTDRTENVKYRQVDHFASNSQEPASALATEDTSLEGSSLAESLRAAAEAAVSQTGFSYDENTGLYFDHSTGFYYDSENQLYYDPSTGIYYYCDVESGRYQFHSRVDLQPYPTSSTKQSKDKKLKKKRKDPDSSATNEEKDLNSEDQKAFSVEHTSCNEEENFANMKKKAKIGIHHKNSPPKVTVPTSGNTIESPLHENISNSTSFKDEKIMETDSEPEEGEITDSQTEDSYDEAITSEGNVTAEDSEDEDEDKIWPPCIRVIVIRSPVLQIGSLFIITAVNPATIGREKDMEHTLRIPEVGVSKFHAEIYFDHDLQSYVLVDQGSQNGTIVNGKQILQPKTKCDPYVLEHGDEVKIGETVLSFHIHPGSDTCDGCEPGQVRAHLRLDKKDESFVGPTLSKEEKELERRKELKKIRVKYGLQNTEYEDEKTLKNPKYKDRAGKRREQVGSEGTFQRDDAPASVHSEITDSNKGRKMLEKMGWKKGEGLGKDGGGMKTPIQLQLRRTHAGLGTGKPSSFEDVHLLQNKNKKNWDKARERFTENFPETKPQKDDPGTMPWVKGTLE [AGGF1] | -0.0218 | -0.292
MSNNLRRVFLKPAEENSGNASRCVSGCMYQVVQTIGSDGKNLLQLLPIPKSSGNLIPLVQSSVMSDALKGNTGKPVQVTFQTQISSSSTSASVQLPIFQPASSSNYFLTRTVDTSEKGRVTSVGTGNFSSSVSKVQSHGVKIDGLTMQTFAVPPSTQKDSSFIVVNTQSLPVTVKSPVLPSGHHLQIPAHAEVKSVPASSLPPSVQQKILATATTSTSGMVEASQMPTVIYVSPVNTVKNVVTKNFQNIYPKPVTEIAKPVILNTTQIPKNVATETQLKGGQHSQAAPVKWIFQDNLQPFTPSLVPVKSSNNVASKILKTFVDRKNLGDNTINMPPLSTIDPSGTRSKNMPIKDNALVMFNGKVYLLAKKGTDVLPSQIDQQNSVSPDTPVRKDTLQTVSSSPVTEISREVVNIVLAKSKSSQMETKSLSNTQLASMANLRAEKNKVEKPSPSTTNPHMNQSSNYLKQSKTLFTNPIFPVGFSTGHNAPRKVTAVIYARKGSVLQSIEKISSSVDATTVTSQQCVFRDQEPKIHNEMASTSDKGAQGRNDKKDSQGRSNKALHLKSDAEFKKIFGLTKDLRVCLTRIPDHLTSGEGFDSFSSLVKSGTYKETEFMVKEGERKQQNFDKKRKAKTNKKMDHIKKRKTENAYNAIINGEANVTGSQLLSSILPTSDVSQHNILTSHSKTRQEKRTEMEYYTHEKQEKGTLNSNAAYEQSHFFNKNYTEDIFPVTPPELEETIRDEKIRRLKQVLREKEAALEEMRKKMHQK [LRIF1] | 0.89 | -0.92
SMG6 | 0.113 | -0.859
MGATGDAEQPRGPSGAERGGLELGDAGAAGQLVLTNPWNIMIKHRQVQRRGRRSQMTTSFTDPAISMDLLRAVLQPSINEEIQTVFNKYMKFFQKAALNVRDNVGEEVDAEQLIQEACRSCLEQAKLLFSDGEKVIPRLTHELPGIKRGRQAEEECAHRGSPLPKKRKGRPPGHILSSDRAAAGMVWKPKSCEPIRREGPKWDPARLNESTTFVLGSRANKALGMGGTRGRIYIKHPHLFKYAADPQDKHWLAEQHHMRATGGKMAYLLIEEDIRDLAASDDYRGCLDLKLEELKSFVLPSWMVEKMRKYMETLRTENEHRAVEAPPQT [DNTTIP1] | -0.0131 | 0.512
MLFTVSCSKMSSIVDRDDSSIFDGLVEEDDKDKAKRVSRNKSEKKRRDQFNVLIKELGSMLPGNARKMDKSTVLQKSIDFLRKHKEITAQSDASEIRQDWKPTFLSNEEFTQLMLEALDGFFLAIMTDGSIIYVSESVTSLLEHLPSDLVDQSIFNFIPEGEHSEVYKILSTHLLESDSLTPEYLKSKNQLEFCCHMLRGTIDPKEPSTYEYVKFIGNFKSLNSVSSSAHNGFEGTIQRTHRPSYEDRVCFVATVRLATPQFIKEMCTVEEPNEEFTSRHSLEWKFLFLDHRAPPIIGYLPFEVLGTSGYDYYHVDDLENLAKCHEHLMQYGKGKSCYYRFLTKGQQWIWLQTHYYITYHQWNSRPEFIVCTHTVVSYAEVRAERRRELGIEESLPETAADKSQDSGSDNRINTVSLKEALERFDHSPTPSASSRSSRKSSHTAVSDPSSTPTKIPTDTSTPPRQHLPAHEKMVQRRSSFSSQSINSQSVGSSLTQPVMSQATNLPIPQGMSQFQFSAQLGAMQHLKDQLEQRTRMIEANIHRQQEELRKIQEQLQMVHGQGLQMFLQQSNPGLNFGSVQLSSGNSSNIQQLAPINMQGQVVPTNQIQSGMNTGHIGTTQHMIQQQTLQSTSTQSQQNVLSGHSQQTSLPSQTQSTLTAPLYNTMVISQPAAGSMVQIPSSMPQNSTQSAAVTTFTQDRQIRFSQGQQLVTKLVTAPVACGAVMVPSTMLMGQVVTAYPTFATQQQQSQTLSVTQQQQQQSSQEQQLTSVQQPSQAQLTQPPQQFLQTSRLLHGNPSTQLILSAAFPLQQSTFPQSHHQQHQSQQQQQLSRHRTDSLPDPSKVQPQ [CLOCK] | -0.192 | 0.134
CBWD1 | -0.0771 | 0.26
CLK3 | 0.423 | -1.26
MGSAKSVPVTPARPPPHNKHLARVADPRSPSAGILRTPIQVESSPQPGLPAGEQLEGLKHAQDSDPRSPTLGIARTPMKTSSGDPPSPLVKQLSEVFETEDSKSNLPPEPVLPPEAPLSSELDLPLGTQLSVEEQMPPWNQTEFPSKQVFSKEEARQPTETPVASQSSDKPSRDPETPRSSGSMRNRWKPNSSKVLGRSPLTILQDDNSPGTLTLRQGKRPSPLSENVSELKEGAILGTGRLLKTGGRAWEQGQDHDKENQHFPLVES [CDCA3] | 0.957 | -0.032

Reference: the supplement of paper PMC5998384
